Target: NKG2D ligands
Experiment: cell-based or functional assay

lysis of autologous immature dendritic cells, E:T ratio of 20:1: 4.2%
B1: chimeric NKG2D receptor (NKG2D.ζ), expressed on primary human NK cells (receptor)
chain: MRVKFSRSAEPPAYQQGQNQLYNELNLGRREEYDVLDKRRGRDPEMGGKPRRKNPQEGLYNELQKDKMAEAYSEIGMKGERRRGKGHDGLYQGLSTATKDTYDALHMQALPPRGWIRGRRSRHSWEMSEFHNYNLDLKKSDFSTRWQKQRCPVVKSKCRENASPFFFCCFIAVAMGIRFIIMVAIWSAVFLNSLFNQEVQIPLTESYCGPCPKNWICYKNNCYQFFDESKNWYESQASCMSQNASLLKVYSKEDQDLLKLVKSYHWMGLVHIPTNGSWQWEDGSILSPNLLTIIEMQKGDCALYASSFKGYIENCSTPNTYICMQRTV
cytotoxicity against autologous MDSCs, 4-hour chromium-release assay, E:T ratio of 5:1: 35%
cytotoxicity against wild-type K562 in a 4-hour cytotoxicity assay, 2:1 E:T ratio: 79.2%

— patent US20240316099A1
